Patent US20210371525A1

Biological target: CD277 (BTN3A1) on Jeko-1 cells (UniProt O00481)
Assay: cell-based or functional assay

CD277 (BTN3A1) on Jeko-1 cells, sequence (O00481 30-513 limits assumed): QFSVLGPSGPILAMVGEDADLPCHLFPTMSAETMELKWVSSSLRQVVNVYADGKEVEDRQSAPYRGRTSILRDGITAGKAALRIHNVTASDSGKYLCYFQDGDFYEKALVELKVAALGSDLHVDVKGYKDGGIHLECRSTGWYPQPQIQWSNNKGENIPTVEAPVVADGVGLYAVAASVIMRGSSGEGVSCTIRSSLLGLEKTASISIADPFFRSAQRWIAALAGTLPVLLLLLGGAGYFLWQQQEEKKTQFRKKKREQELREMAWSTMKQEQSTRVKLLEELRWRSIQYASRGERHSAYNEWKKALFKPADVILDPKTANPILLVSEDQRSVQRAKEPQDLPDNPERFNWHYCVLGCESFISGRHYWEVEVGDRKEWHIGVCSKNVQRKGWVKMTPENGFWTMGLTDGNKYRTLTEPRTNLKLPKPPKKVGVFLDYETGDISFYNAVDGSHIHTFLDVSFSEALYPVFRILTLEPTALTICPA

B1: human Vγ9Vδ2-TCR on cultured Vγ9Vδ2-T cells (TCR, V domains shown)
V domain 1: AGHLEQPQISSTKTLSKTARLECVVSGITISATSVYWYRERPGEVIQFLVSISYDGTVRKESGIPSGKFEVDRIPETSTSTLTIHNVEKQDIATYYCALWEAQQELGKKIKVFGPGTKLIITD
V domain 2: AIELVPEHQTVPVSIGVPATLRCSMKGEAIGNYYINWYRKTQGNTMTFIYREKDIYGPGFKDNFQGDIDIAKNLAVLKILAPSERDEGSYYCACDTLGMGGEYTDKLIFGKGTRVTVEP
- decrease of 1D7-5C8-induced lysis of Jeko-1 cells with anti-CD277 mAb 103.2 (10 µg/mL): 11.4%
- specific lysis of Jeko-1 cells at 10 pM 1D7-5C8 with anti-CD277 mAb 103.2 (10 µg/mL): 18.2%
